For this experiment, the target named is αvβ3 integrin on HeLa cells (human, UniProt P06756 31-1048; P05106 27-788). Briefly: cell-based or functional assay.

Where no end group is shown, it is not given here.

3 molecules from US20100266695A1 (University of California, published 2010) can be followed below.

Chain of αvβ3 integrin on HeLa cells (P06756 31-1048, chain 1 of 2): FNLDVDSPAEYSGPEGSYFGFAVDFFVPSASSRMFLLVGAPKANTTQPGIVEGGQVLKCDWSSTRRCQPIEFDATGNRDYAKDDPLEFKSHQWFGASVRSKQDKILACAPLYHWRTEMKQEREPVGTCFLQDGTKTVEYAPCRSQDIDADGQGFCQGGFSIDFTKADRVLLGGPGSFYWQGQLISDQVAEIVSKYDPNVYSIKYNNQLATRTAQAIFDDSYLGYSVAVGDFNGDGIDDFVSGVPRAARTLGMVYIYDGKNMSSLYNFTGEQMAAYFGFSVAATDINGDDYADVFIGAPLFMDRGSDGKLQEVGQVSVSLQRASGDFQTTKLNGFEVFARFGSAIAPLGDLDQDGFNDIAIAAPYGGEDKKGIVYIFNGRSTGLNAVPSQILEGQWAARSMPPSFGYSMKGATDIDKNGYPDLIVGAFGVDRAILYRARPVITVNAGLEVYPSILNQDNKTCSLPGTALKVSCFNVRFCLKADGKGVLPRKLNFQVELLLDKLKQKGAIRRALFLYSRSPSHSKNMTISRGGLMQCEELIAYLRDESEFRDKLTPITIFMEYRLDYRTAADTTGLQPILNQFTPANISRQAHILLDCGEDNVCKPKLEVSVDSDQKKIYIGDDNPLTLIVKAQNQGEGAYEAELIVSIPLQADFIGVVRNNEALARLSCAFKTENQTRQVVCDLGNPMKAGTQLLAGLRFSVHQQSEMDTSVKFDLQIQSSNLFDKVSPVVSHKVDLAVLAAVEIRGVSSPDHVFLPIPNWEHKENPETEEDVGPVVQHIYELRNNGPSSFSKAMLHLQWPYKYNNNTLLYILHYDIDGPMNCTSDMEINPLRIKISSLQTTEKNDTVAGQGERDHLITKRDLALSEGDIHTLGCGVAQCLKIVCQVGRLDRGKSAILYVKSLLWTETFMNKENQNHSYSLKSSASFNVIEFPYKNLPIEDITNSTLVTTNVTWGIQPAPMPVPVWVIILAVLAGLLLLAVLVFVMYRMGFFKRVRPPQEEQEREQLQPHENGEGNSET
Chain of αvβ3 integrin on HeLa cells (P05106 27-788, chain 2 of 2): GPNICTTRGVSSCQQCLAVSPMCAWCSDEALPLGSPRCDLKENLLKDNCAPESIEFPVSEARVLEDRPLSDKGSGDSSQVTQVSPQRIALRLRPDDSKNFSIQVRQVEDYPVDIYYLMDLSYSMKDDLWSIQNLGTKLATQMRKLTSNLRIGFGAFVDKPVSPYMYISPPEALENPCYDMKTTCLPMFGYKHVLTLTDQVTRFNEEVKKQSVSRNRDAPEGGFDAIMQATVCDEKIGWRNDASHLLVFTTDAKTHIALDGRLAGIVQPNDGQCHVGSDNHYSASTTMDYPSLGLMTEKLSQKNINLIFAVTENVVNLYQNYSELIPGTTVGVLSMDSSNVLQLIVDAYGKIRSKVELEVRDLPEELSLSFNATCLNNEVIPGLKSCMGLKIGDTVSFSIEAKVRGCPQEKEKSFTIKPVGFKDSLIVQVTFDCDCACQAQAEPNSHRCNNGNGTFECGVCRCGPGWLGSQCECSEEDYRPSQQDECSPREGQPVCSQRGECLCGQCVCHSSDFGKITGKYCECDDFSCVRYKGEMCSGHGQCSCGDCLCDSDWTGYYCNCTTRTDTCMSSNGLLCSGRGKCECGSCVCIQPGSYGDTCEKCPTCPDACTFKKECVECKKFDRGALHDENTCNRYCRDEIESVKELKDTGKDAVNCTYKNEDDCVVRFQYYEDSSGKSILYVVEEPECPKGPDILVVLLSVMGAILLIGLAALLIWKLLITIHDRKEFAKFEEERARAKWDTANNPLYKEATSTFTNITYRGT

B1: DNA/PEI-Au-Cap-RGD-ASA polyplex: DNA/poly(ethylene imine) polyplex covalently modified with Au-Cap-RGD-ASA nanoparticles (other)
peptide 1: Ac-CCVVVTGRGDSPSSK-OH
peptide 2: CCVVVT
modifications: also: peptides on gold nanoparticle via thiol/gold, azidosalicylic acid added, residue not given here, crosslinked to PEI, bound to DNA/PEI polyplex
As for B1, the “Integrin Sensitivity Factor (ISF), ratio of the transfection level achieved with high and low αvβ3 density cells” value is 60; the “luciferase expression in low αvβ3 density HeLa cells, against unmodified polyplexes” value is 5.4 fold; the “transfection efficiency in high αvβ3 density HeLa cells, against unmodified polyplexes” value turned out to be 35 fold; the “transfection efficiency, HeLahigh against HeLalow” value came out at 7 fold.

B2: free RGD peptide (Ac-GCGYGRGDSPSSK-NH2) (peptide)
peptide: Ac-GCGYGRGDSPSSK-NH2
As for B2, the “IC50 concentration at which 50% of cell adhesion is inhibited (anti-adhesion assay, HeLa cells on vitronectin)” value was about 100 µM.

B3: Au-Cap-RGD nanoparticles (RGD nanoclusters): 5 nm gold nanoparticles modified with a mixture of Cap and Cap-RGD peptides (peptide)
peptide 1: Ac-CCVVVTGRGDSPSSK-OH
peptide 2: CCVVVT-OH
modifications: also: peptides attached to 5 nm gold nanoparticle via thiol/gold, mixture of Cap and Cap-RGD
As for B3, the IC50 level of cell adhesion inhibition, as equivalent RGD peptide (anti-adhesion assay, HeLa cells on vitronectin) was 0.1 µM.
